Assay: affinity of cytochrome P450 2B6 protein for cyclophosphamide (CPA) and Vmax
Type: biochemical, human
Description: In a particularly advantageous embodiment, said variants and fragments have an affinity for CPA that is identical, substantially identical or greater than that of the mutant human cytochrome P450 2B6 protein (CYP2B6*) of SEQ ID No. 1. Methods making it possible to assay said activity and said affinity are well known to a person skilled in the art and are particularly described in Nguyen et al., Mol. Pharmacol., 2008, 73: 1,122-1,133.

B1: CYP2B6*: mutant human cytochrome P450 2B6 protein of SEQ ID No. 1 with 114V, 199M and 477W residues (protein, listed as Homo sapiens)
chain: MELSVLLFLALLTGLLLLLVQRHPNTHDRLPPGPRPLPLLGNLLQMDRRGLLKSFLRFREKYGDVFTVHLGPRPVVMLCGVEAIREALVDKAEAFSGRGKIAMVDPFFRGYGVVFANGNRWKVLRRFSVTTMRDFGMGKRSVEERIQEEAQCLIEELRKSKGALMDPTFLFQSITANIICSIVFGKRFHYQDQEFLKMMNLFYQTFSLISSVFGQLFELFSGFLKYFPGAHRQVYKNLQEINAYIGHSVEKHRETLDPSAPKDLIDTYLLHMEKEKSNAHSEFSHQNLNLNTLSLFFAGTETTSTTLRYGFLLMLKYPHVAERVYREIEQVIGPHRPPELHDRAKMPYTEAVIYEIQRFSDLLPMGVPHIVTQHTSFRGYIIPKDTEVFLILSTALHDPHYFEKPDAFNPDHFLDANGALKKTEAFIPFSLGKRICLGEGIARAELFLFFTTILQNFSMASPVAPEDIDLTPQECGWGKIPPTYQIRFLPR
affinity for CPA relative to the wild-type protein (CYP2B6 WT) (fold greater than CYP2B6 WT, substitutions I114V, L199M, V477W): more than 8 times | Vmax compared with wild-type protein (versus CYP2B6 WT, substrate CPA): same Vmax

— US20220409668A1, “GENETICALLY MODIFIED HUMAN STEM CELL EXPRESSING A MUTANT HUMAN CYTOCHROME P450 2B6 PROTEIN AND USE THEREOF IN THE TREATMENT OF CANCER” (ASSISTANCE PUBLIQUE-HOPITAUX DE PARIS, priority 2019, published 2022)
